# Data reported in US20250320284A1 (AC IMMUNE, published 2025).
# Numbering of substitutions follows the chain as printed.
# T1: mouse ASC (mouse, UniProt Q9EPB4 1-193)
# T1 construct: recombinant mASC in ELISA and SPR; endogenous ASC of J774.A1 cells in Western blot and immunofluorescence; also called mASC
# T1 sequence: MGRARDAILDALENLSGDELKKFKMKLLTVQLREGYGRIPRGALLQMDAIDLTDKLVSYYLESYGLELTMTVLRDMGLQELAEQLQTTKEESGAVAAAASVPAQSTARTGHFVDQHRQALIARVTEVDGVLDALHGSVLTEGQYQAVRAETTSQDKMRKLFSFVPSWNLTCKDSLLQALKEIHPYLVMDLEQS
# T2: CARD domain of human ASC (human, UniProt Q9ULZ3 107-195)
# T2 construct: biotinylated in BLI; also called hCARD; human CARD
# T2 sequence: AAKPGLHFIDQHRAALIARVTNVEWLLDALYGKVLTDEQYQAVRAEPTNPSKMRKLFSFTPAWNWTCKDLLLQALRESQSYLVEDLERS
# B1: ACI-8016-26A1G2-AB1 (antibody, V domains shown)
# VH: QVQLQQSGAELARPGASVKLSCKASGYNFTTYGINWVKQRTGQGLEWIGKIYPRSGNTHNNENFKGKATLTADTSSSTAYMDLRSLTSEDSAVYFCARSPYAFYSSSYWYFDVWGTGTTVTVSS
# VL: DIKMTQSPSSMYASLGERVTITCKASQDIKSYLSWYQQKPWKSPKTLIYYATSLADGVPSRFSGSGSGQDYSLTISSLESDDTATYYCLQHGESPFTFGSGTKLEIK
# notes: also called 936.26A1G2; ACI-8016-26A1G2-AB1_hmG2c
# B2: ACI-8016-18F4C12-AB1 (antibody, V domains shown)
# VH: EVQLQQSGAELVRPGSSVKMTCKTSGYSFSSYGMSWVKQRPGQGLEWIGYIYVGNGYTEYNEKFKGKATLTSDTSSSTVYMDFRSLTSEDSAIYFCARLNRGRALDFWGQGTTLTVSS
# VL: DIVLTQSPASLAVSLGQRATISCRASQSVSTSGHSYMHWYQQKPRQSPKLLIHFASNLESGVPARFTGSGSGTDFTLNIHPVEEEDAATYYCQHSWDLPYTFGGGTKLEIK
# notes: also called 936.18F4C12
# B3: ACI-8016-32B6C7-AB1 (antibody, V domains shown)
# VH: QVQLQQSDAELVKPGASVKISCKISGYTFTDQTIHWMNQRPEQGLEWIGYIYPGDGSAMYNEKFRGKATLTADKSSSTAYMQLNSLTSEDSAVYFCARPLYSYASYYWFAYWGQGTLVTVSA
# VL: DIQMNQSPSSLSASLGDTITITCHASQNINVWLSWYQRKPGNIPKLLIYKSSNLHTGVPSRFSGSGSGTGFTLTISSLQPEDIATYYCQQGQSYPLTFGGGTKLEIK
# notes: also called 936.32B6C7
# B4: ACI-8016-22D3A6-AB1 (antibody, V domains shown)
# VH: QAQLQQSGTELARPGSSVKLSCKASGFTFTIYGINWVKQRTGQGLEWIGEIYPRSGNTYYDEKFKGKATLTADKSTSTAYMELRSLTSEDSAVYFCARSREWEGVFWGQGTLVTVSA
# VL: QIVLTQSPAIMSAFPGEKVTITCSATSSVSYMHWFQQKPGTSPKLWIYSTSNLASGVPARFSGSGSGTSHSLTINRMEAEDAATYYCQQRSRYPFTFGSGTKLEIK
# notes: also called 936.22D3A6; ACI-8016-22D3A6-AB1_hmG2c
# B5: ACI-8016-2617C3A8-AB1 (antibody, V domains shown)
# VH: QVQLQQSGVELARPGASVKLSCKASGSTFTSYSITWVKQRTGQGLEWIGVIYPRSDNTYYDEKFKGKATLTADKSSSTAYIELRSLTSEDSAVYFCATRDYWGQGTTLTVSS
# VL: B4 VL with F14S, T26S, H33Y, L45F, H70Y, N75S, R92N
# Target: T3, human ASC (apoptosis associated speck-like protein containing a caspase-recruitment domain) (human, UniProt Q9ULZ3 1-195)
# T3 construct: recombinant hASC in ELISA and SPR; endogenous ASC (cytoplasmic or specks) in Western blot and immunofluorescence; also called hASC; PYCARD
# Assay: ELISA, coated hASC;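 note: antibody binding to plate-coated recombinant human ASC, read as phosphatase substrate absorbance, EC50 from four-parameter variable-slope fit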
# Description: (§1) Proteins and peptides were diluted in PBS. Final concentration of 3 μg/mL for human and mouse ASC proteins and 2 μg/mL for PYD and CARD domain of hASC was used to coat ELISA plates (MaxiSorp, Nunc) overnight (ON) at 4° C., 50 μL/well. After washing four times with PBS/0.05% Tween-20 and blocking for one hour at 37° C. […] After washing, plates were incubated two hours at RT with 1 mg/mL of phosphatase substrate pNPp (Sigma, cat. n° S0942). […] The absorbance signal was read at 405 nm wavelength using a plate reader (Tecan Infinity M200). EC50 was calculated using GraphPad Prism 8 and a non-constrain variable slope 4 parameter fit.
# (§2) The binding potency of a mAb to human ASC (hASC), mouse ASC (mASC), human PYD (hPYD) and human CARD (hCARD) was determined by ELISA.
row,Binder,EC50
1,B1,0.13 nM
2,B2,0.19 nM
3,B3,0.14 nM
4,B4,0.27 nM
5,B5,0.16 nM

# Target: T4, PYD domain of human ASC (human, UniProt Q9ULZ3 1-91, limits assumed)
# T4 construct: biotinylated in BLI; His/MBP-tagged in the alanine ELISA; also called hPYD; human PYD
# T4 sequence (Q9ULZ3 1-91 limits assumed): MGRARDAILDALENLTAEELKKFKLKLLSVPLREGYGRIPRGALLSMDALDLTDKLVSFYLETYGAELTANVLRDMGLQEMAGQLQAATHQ
# Assay: ELISA, coated hPYD;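 note: monoclonal antibody binding to plate-coated human ASC PYD measured by ELISA, with a phosphatase substrate absorbance read-out and EC50 from a variable slope curve fit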
# Description: as §1, §2
Binder,EC50,binding result
B1,0.12 nM,–
B2,–,no binding
B3,–,no binding
B4,0.2 nM,–
B5,0.16 nM,–

# Target: T1, mouse ASC
# Assay: ELISA, coated mASC
# Description: as §1, §2
row,Binder,EC50
1,B1,0.15 nM
2,B2,0.2 nM
3,B3,0.14 nM
4,B4,0.27 nM
5,B5,0.23 nM

# Target: T2, CARD domain of human ASC
# Assay: ELISA, coated hCARD
row,Binder,EC50
1,B2,0.18 nM
2,B3,0.11 nM

# Target: T3, human ASC (apoptosis associated …)
# Assay: cell-based or functional assay
row,Binder,"Human ASC polymerization assay, IC50"
1,B1,4.9 nM
2,B2,4.7 nM
3,B3,12.1 nM
4,B4,4.2 nM
5,B5,6 nM

# Target: T1, mouse ASC
# Assay: cell-based or functional assay
row,Binder,"Mouse ASC polymerization assay, IC50"
1,B1,24.8 nM
2,B4,30.1 nM
3,B5,35.7 nM

# Target: T3, human ASC (apoptosis associated …)
# Assay: cell-based or functional assay
# Remark: another data set of the same source
row,Binder,"IL-1β release, human monocytic cell line, IC50"
1,B2,15.9 nM
2,B3,13.9 nM
3,B4,41.1 nM
4,B5,20.3 nM

# Target: T1, mouse ASC
# Assay: cell-based or functional assay
# Remark: another data set of the same source
row,Binder,"% IL-1β inhibition, mouse primary microglia, 420 nM mAb"
1,B1,52.1%
2,B2,82.8%
3,B3,66.7%
4,B4,40%
5,B5,94.3%

# Target: T3, human ASC (apoptosis associated …)
# Assay: SPR affinity mode, mAb captured;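 note: Single-cycle SPR kinetics with mAbs captured on goat anti-mouse antibody, double-referenced against blank flow cell and buffer cycle, fitted by a 1:1 kinetic model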
# Description: (§3) ASC mAb Capture and Binding Kinetics: Each cycle started with non-covalent capture of ASC mAbs (listed in Table 1) which were diluted in running buffer to a final concentration of 2 μg/mL and injected for 90 sec with a flow rate of 10 μL/min. Eight mAbs were captured on flow-cell 2 at the same time, leaving flow-cell 1 as a blank control. Capture levels were evaluated following a 120 sec stabilization period after each mAb injection and ranged from 300 to 460 RU (see Table 3).
# (§4) Binding affinity of mAbs for hASC and mASC was assessed using a single-cycle kinetics method. Prior to analysis, two startup cycles were run. […] Regeneration of the goat anti-mouse antibody was achieved by injection of 10 mM glycine-HCl pH 1.7 at a flow rate of 10 μL/min for 120 sec, followed by a stabilization period of 300 sec. For blank injections running buffer was injected under the same conditions. Results obtained from single-cycle kinetics were double-referenced using the blank flow-cell 1 and a buffer cycle and evaluated using the Biacore 8K evaluation software with 1:1 kinetic fit model (global Rmax). The following kinetic parameters were obtained: Association rate constant (ka), dissociation rate constant (kd), affinity constant (KD) and saturation response (Rmax). Fitting was rejected if less than three curves could be fit.
# (§5) Obtained sensorgrams were fit with a 1:1 kinetic fit model. mAbs with a signal below 20 RU at the highest concentration were considered as “low binders”. Responses with no concentration dependence or with signal below 5 RU at the highest concentration were considered as “non-binders”.
Binder,Kd,koff,kon
B1,1.87 nM,8.05e-05 s⁻¹,42000 M⁻¹ s⁻¹
B2,0.7 nM,0.000442 s⁻¹,621000 M⁻¹ s⁻¹
B3,1.06 nM,0.000201 s⁻¹,192000 M⁻¹ s⁻¹
B4,0.38 nM,0.000264 s⁻¹,690000 M⁻¹ s⁻¹
B5,0.15 nM,0.000118 s⁻¹,810000 M⁻¹ s⁻¹

# Target: T1, mouse ASC
# Assay: SPR affinity mode, mAb captured;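 note: Single-cycle SPR kinetics with mAbs captured on goat anti-mouse antibody, double-referenced against blank flow cell and buffer cycle, fitted by a 1:1 kinetic model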
# Description: as §3, §4, §5
Binder,Kd,koff,kon
B1,3.81 nM,0.000101 s⁻¹,27600 M⁻¹ s⁻¹
B4,1.16 nM,0.00069 s⁻¹,598000 M⁻¹ s⁻¹
B5,0.15 nM,0.000162 s⁻¹,1.09e+06 M⁻¹ s⁻¹

# Target: T4, PYD domain of human ASC
# Assay: BLI binning on PYD, competitor 22D3A6-AB1
# Description: (§6) Competitive epitope binning of ASC mAbs was performed on OctetQKe (ForteBio) in “in-Tandem” mode. […] After each competition cycle, biosensors were regenerated by three consecutive incubations of 5 s in 0.1 M Glycine pH 1.5 followed by a neutralization step of 30 s in PBS, 0.1% BSA, 0.02% Tween.
# (§7) All antibodies were tested in a matrix fashion and in both assay orientations. For each competition cycle, a blank run was performed using 1×PBS, 0.1% BSA, 0.02% Tween to determine baseline and maximum binding level. […] Competing mAb responses were normalized relative to the competing antibody alone binding response. […] A bin was defined as a group of antibodies competing in both orientations.
# (§8) Antibodies at saturating concentration are represented as rows and competing antibodies as columns.
row,Binder,normalized binding response
1,B1,23%
2,B4,2%
3,B5,1%

# Target: T4, PYD domain of human ASC
# Assay: BLI binning on PYD, competitor 23E5F7-AB2
# Description: as §6, §7, §8
row,Binder,normalized binding response
1,B1,18%
2,B4,1%
3,B5,1%

# Target: T4, PYD domain of human ASC
# Assay: BLI binning on PYD, competitor 26A1G2-AB1
# Description: (§9) To determine the epitope coverage and diversity of the antibody panel, an epitope binning experiment was performed. Competitive epitope binning of ASC mAbs was performed on OctetQKe (ForteBio) in “in-Tandem” mode. […] After each competition cycle, biosensors were regenerated by three consecutive incubations of 5 s in 0.1 M Glycine pH 1.5 followed by a neutralization step of 30 s in PBS, 0.1% BSA, 0.02% Tween.
# as §7, §8
row,Binder,normalized binding response
1,B1,3%
2,B4,0%
3,B5,2%

# Target: T4, PYD domain of human ASC
# Assay: BLI binning on PYD, competitor 31F10C5-AB1
# Description: as §6, §7
row,Binder,normalized binding response
1,B1,19%
2,B4,1%
3,B5,2%

# Target: T4, PYD domain of human ASC
# Assay: BLI binning on PYD, competitor 401H9B7-AB1
# Description: as §6, §7, §8
row,Binder,normalized binding response
1,B1,63%
2,B4,73%
3,B5,75%

# Target: T4, PYD domain of human ASC
# Assay: BLI binning on PYD, competitor 416E6G4-AB1
# Description: as §6, §7, §8
row,Binder,normalized binding response
1,B1,14%
2,B4,2%
3,B5,4%

# Target: T2, CARD domain of human ASC
# Assay: BLI binning on CARD, competitor 32B6C7-Ab1
# Description: as §9, §7, §8
row,Binder,normalized binding response
1,B2,78%
2,B3,0%

# Target: T4, PYD domain of human ASC
# Assay: BLI binning on PYD, competitor 2610H7D3-AB1
# Description: as §9, §7, §8
row,Binder,normalized binding response
1,B1,22%
2,B4,3%
3,B5,0%

# Target: T4, PYD domain of human ASC
# Assay: BLI binning on PYD, competitor 2617C3A8-AB1
# Description: as §9, §7, §8
row,Binder,normalized binding response
1,B1,23%
2,B4,2%
3,B5,2%

# Target: T4, PYD domain of human ASC
# Assay: BLI binning on PYD, competitor 2626B9D3-AB1
# Description: as §6, §7, §8
row,Binder,normalized binding response
1,B1,33%
2,B4,74%
3,B5,88%

# Target: T2, CARD domain of human ASC
# Assay: BLI binning on CARD, competitor 18F4C12-Ab1
# Description: as §6, §7
row,Binder,normalized binding response
1,B2,0%
2,B3,97%

# Target: T2, CARD domain of human ASC
# Assay: BLI binning on CARD, competitor 2504F3D9-Ab1
# Description: as §6, §7
row,Binder,normalized binding response
1,B2,33%
2,B3,-3%

# Target: T2, CARD domain of human ASC
# Assay: BLI binning on CARD, competitor 2609F4A9-Ab1
# Description: as §6, §7
row,Binder,normalized binding response
1,B2,68%
2,B3,-3%

# Target: T2, CARD domain of human ASC
# Assay: BLI binning on CARD, competitor 2629E8D1-Ab1
# Description: as §6, §7
row,Binder,normalized binding response
1,B2,69%
2,B3,-2%

# Target: T2, CARD domain of human ASC
# Assay: BLI binning on CARD, competitor 2622E12F11-Ab1
# Description: as §6, §7
row,Binder,normalized binding response
1,B2,-3%
2,B3,106%

# Target: T1, mouse ASC
# Assay: SPR affinity mode, steady-state fit, apparent KD
# Description: as §3, §4
row,Binder,Kd
1,B2,54.5 nM
2,B3,36.9 nM

# Target: T2, CARD domain of human ASC
# Assay: sandwich ELISA on MBP-tagged protein captured by anti-MBP antibody, signal as % of hPYD-WT
row,Binder,binding result
1,B4,no binding

# Target: T2, CARD domain of human ASC
# Assay: as above
# Remark: another data set of the same source
row,Binder,binding result
1,B1,no binding
2,B5,no binding
